Reference: the domain aggregation screens of Martell et al. (2025)

Experiment: soluble fraction after stress (log2 fold change); higher = more stays soluble; pooled small domains, quantitative proteomics
Conditions: stress: pH 4
Summary of the method: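 Small protein domains from pooled custom libraries were exposed to pH 4, then quantified with high-throughput quantitative proteomics. The fold change in how much of each domain remains soluble is read as aggregation propensity. It is given as log2, with higher values meaning more stayed soluble.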

## HMELNEMEAWSLVSKALRNGTYGAVEEFSRLPPTVQEAVGNPDNLRNWATSDYKAIETVIQSNFIKTY
  soluble fraction (log2): -0.429

## HMSQEILSNQSIKDMIELGFEEQTIIDKIQTSTSDFDTTIEELKALKQLGASPTILSAMIKSIKK
  soluble fraction (log2): -1.97

## HMHIELNDTQKRILNFLSDDPNLSAVRLAEQLGISSRNVEKNIKKLKEYGILIRHGSPKNGYWEIVV
  soluble fraction (log2): -0.2

## HMDGPELYESMKAIVPDQLDRTIFLTGGAYTPRAQEFLARVPNQQMEKPFEFEALRSLLARLT
  soluble fraction (log2): -0.199

## HMILPKFNQLLGQMGENIKLARKRRKLTAVQVSERAGIARSTLYLIEKGDASVSLGAYFNVLRVLG
  soluble fraction (log2): -0.214

## HMTTVDYDALRAAILQQVVSEDTTPALTTENTEIKYKFKFGLDTWVDLDGGKIAPAVSAKSYEIQISFKG
  soluble fraction (log2): 0.12

## HMEALDPLTAREQEVLEMILSGKSNREIAAELHITENTVKTHAQSIYSKYDVRGRAKLISLLLKGEA
  soluble fraction (log2): -0.192

## HMLISAESVKRRLEMIRHLILLGDYEDVTAQVIKLNPAANEYKLTPIIEELNGGKYQEALEKINSYLSKF
  soluble fraction (log2): -0.127

## HMQMSDTGAIEAMVKEALDENPQAIEDFKNGKGKALGFLMGQVMKKSKGQANGGIVNKLIKEELQKRIG
  soluble fraction (log2): 0.315

## HMRDRYEYLKELRLYLSPLGRTEEDRVIEYYAELIGDKIESGIPENGVLSQLGTPRELADKILAETQEY
  soluble fraction (log2): -0.384

## HMPKPMKATKITLQQEPRIRVDFTYDPLKVQQIKTISGARWSKSLKAWHIPYTKEAFNQLKKLFPNVEIEV
  soluble fraction (log2): 0.22

## HMDLDEELDFLSDADESATKLDLARAYIDMGDKDGARDILAEVLEEGRSEQKREAQALLDSI
  soluble fraction (log2): -1.76

## HMHSRTWTSADGVKTFEGELQSYDAASGKVSVILPNHKRITFKQEKLSADDIAWLEKNGNRP
  soluble fraction (log2): 0.218

## HMDTFEITVEESDIDKRIDLFLAGNLESFSRSYIQDLIKKGKATISGKPVKANYRLREGDSVVLSIPKPK
  soluble fraction (log2): -0.946

## HMTMNLIEIGHVVGARRAELGLTQAQLAHLSGLSRQTVVGLEKGTLSDLGVNRVGQVMAVLGLDS
  soluble fraction (log2): -0.242

## HMETTEELISKTVPISYADMAALTGILDGVKSARGDIQVDDRTSTIIIHDIQSSIDEMMRLIKILD
  soluble fraction (log2): -1.13

## HMSPSRRENLTAAAKEYFVNTQIRHKTFGNGVIIKRSGNIAAIRFDNGTIKQIDLIAALQAKVLSIL
  soluble fraction (log2): -0.512

## HMITPNQAAVTLKVSTSTLRRWSSDFEPFLSPRKGVKRLYTIEDIATLKRIQGLYKQGMNTAQVQA
  soluble fraction (log2): -0.0332

## HMAKYEVVAKDIISRIKQNEFETTLKLPTEDEMIEYYQVSRNTVRSALKLLTSQGIIFSRQGSGFYIRQRS
  soluble fraction (log2): -0.117

## HMQGEASDAQLKAIFAIARKLGITDDFEVHRKASRLAGVPEPEVLPSLKSLTYAQASAVIKALQEELE
  soluble fraction (log2): -0.0238

## HMNAQLTTIPDLDGMNMRAATAMLSSLGLEVKRIGSGTVFAQFPKAGAAMRPGSMVTIRGKAKSL
  soluble fraction (log2): 0.22

## HMAPADLSPEERVVLDALALEPVHVDALAAKLGRRSEELLTSLTLMEMRGLAVAHAGSRYSRATMT
  soluble fraction (log2): -0.934

## HMNVVGAKGRIIKISSSEEKMAVAEIEGHGEWNIRTNSEIELFVGKSVEVIEMKGNYLLVNQI
  soluble fraction (log2): -1.81

## HMLISKNLLGFTIKNTSGVTFGTLKDIMWLPSNDVYVIDNNGKEYLIPVISEIVKSINYDKGSITIFP
  soluble fraction (log2): -0.398

## HMGNNKLVLSLAVALKNTPNFLKNYNYKISKDKKFIEILLSKQINEVSDIIINLKKNNINIVDLNIKKR
  soluble fraction (log2): -0.0131

## HMPAYYQKEAVLDGRASVFAYERDPSSWYFKQLIPGTKKYRTKKIQGATTLEQAKSQALDIALGLRDEP
  soluble fraction (log2): 0.243

## HMGTVIGMGRITAGGVNFRETEGGGVIEKLERDTLVEVLTVPSVIDTTHWYQVRYNNRTGYVQAPFVQLLG
  soluble fraction (log2): 0.176

## HMGVENDGYVLPRELKKGDTVLIADLGKEATVLSPVDRNGNVEVLAGAAKTRVKLKNLRLIE
  soluble fraction (log2): 0.179

## HMDDAVSHPDAGHIVTVTKVSADGTAEVMYRGASWRAKTADGSPLTAGSARIVRVDGAALVVEP
  soluble fraction (log2): 0.116

## HMDDDDPDQEIAQYYEKLRAMNPDEETKQKLSDEINKLSKMMYSSQEAMVSRNYLDTVFSLPWHQF
  soluble fraction (log2): -1.37

## HMFSAASSQISSYVRSVVDKAQTYEQAYEILAKNPLGFKLDALEDELFRIIANAEILGADDDE
  soluble fraction (log2): -1.24

## HMAEAETVKFVGNSLLLVSGAAKGERLSVYTVGGQHVLSADATKPVDVAALHSGVYVVRTTNGVITKIVK
  soluble fraction (log2): 0.0831

## HMNGARALAGAIAEAIRKQVYRVNERLPAERELASHYDVSRGTLRSALALLEQEGLVTRKVGSGTFVMPP
  soluble fraction (log2): 0.161

## HMGFAANLSRLMEYHNISMYRLAKEVGVHQTTVKNWLEEESEPKIAALEKIVGLLGVSYDELLG
  soluble fraction (log2): -1.72

## HMDEEEKGEVEVPNLIGLTRKEAKKTLEEEGLLIETKESLKTNLDDEYEKIKSQLPKAGIKIKQGSTVYVD
  soluble fraction (log2): 0.183

## HMQTRIDISDAVLQWVVRKTQFAALPPKAAAHLTKWVRGEKKPTFNQLEEVSKATGIPLGYFFLQQPPHE
  soluble fraction (log2): -0.561

## HMNQSEMIGSRLKEERLQQKLTLKQLSEKVGLSIGYLSQVERGYGTLSLSALKKLSSALGLEMSTFFD
  soluble fraction (log2): 0.121

## HMTSTEQQIEQFIGTLVSLGGSAGNQRLLEALGWQDSIYQRVKQQLIDDGRIRPGRGRGGSVVLAE
  soluble fraction (log2): -0.302

## HMQKLNIEEQIVYDIIFKNKELSANEIQIKSGIKTSILNALLINLEIKQYIKLKFGNFYEIK
  soluble fraction (log2): -1.63

## HMKPDSEFTSQDLWQNDLAGTGSAAYRRDKMGALLGIGYGNAKRFLERLNSYGVTRSEFDEALAQLGE
  soluble fraction (log2): 0.134

## HMKNSAAKETILAFLKKNGGELFTQMQIIEKFQKMIPAPVLRITLEELLNKGQVEITSKGKYYLSVKGS
  soluble fraction (log2): -0.903

## HMYTVQPHESLWSIAASQLGDGHRFTEIVDLNQELLGGKANFIKPGWVLQIP
  soluble fraction (log2): -0.911

## HMRSAKLPYSEFLKLVDTDKVNDVSIVGRTISGHLDDGSKFSTYTPPNDPNIIEKLSSHNVIINSAPE
  soluble fraction (log2): 0.337

## HMGTLNLSQAYREWGMAEIEANRDYYGPVRFDDIAFQMSPAGQQLQARFVASYADRLHDAIEGEL
  soluble fraction (log2): -1.68

## HMHNQIGDKIRELRTRSNLTQADLGKLVGVSMQAVSKWERGGTPDIDVLLSVAKYFNISLDEMVGRT
  soluble fraction (log2): -1.63

## HMENTVVMPNLLGKTMTEAKIELKDLSISITLKGSENSSQYAAGQIISQSVDSGTRVAVGSSVEVTIAGS
  soluble fraction (log2): -0.0377

## HMTSLVRTSNLDGFEPLARSIGVDPVMELMRFGIPPDALIRENMFISFIGFIRLLEHTALAG
  soluble fraction (log2): 0.206

## HMITPAGVPPALLPVFDQFTLPDGTLRRGAVAAALRALYGPDAPQSGKRYQMEYDRVMAWHSQYFTSLH
  soluble fraction (log2): -0.42

## HMHDLTERQREILQTLASGKMALREILSILSQPPSLRTLRDELYHLKRIGLVDTMGYGRGATWFLTQ
  soluble fraction (log2): -0.13

## HMNPESRRSELIDAATKLFFSRGYTATSIRDILDAVDDRTASPSVFYYYFESKEAIYQAVLQRYTD
  soluble fraction (log2): -1.34

## HMSDTFTITTESGRIDKIITAHETTHTRSQVQKWLQDGLVTVNGNPVKANFKVTAGDVVTVTIPEVK
  soluble fraction (log2): -0.0373

## HMSSEYARFFSGNYYEVLGVAKNASYDEIKAAWKKLVKEYHPDLHPQRQEEFTKIIQKINEAYEYFKKMH
  soluble fraction (log2): -0.201

## HMENRILIPTAENIGERLDRYISSELDAPRSQVQIWIDSGLVAVSGGLKPKNYRLREGDEIEVTIPDPV
  soluble fraction (log2): -0.0637

## HMGTDVFIMTGGTRKRGATWSYYFDLGKIDGKRQKKEKGGFKTKKEAETALAKAINEYNNAGA
  soluble fraction (log2): 0.175

## HMTENLELLATGSLWTEPDGSGKIISYLIPGLRVKKLETNGIFYKIQLQNGLIGWADQSLFTIAEPK
  soluble fraction (log2): -0.212

## HMDQNDYMLTRIRNGQMRNKVSVSMPASKIKSAIAAVLKDEGYIENFALNDSSGKPSLIVNLKYYAGQPV
  soluble fraction (log2): -0.0771

## HMKSKHENLIDGLLKMISSMKPHDRLTPERQLAEEWAVSRMTLRRALEVLQFQGKIYTVPSSGLFVAEPK
  soluble fraction (log2): -0.677

## HMSIITLFQEINAAVAEATGGRVPESVVQNFILGKDVVIPEDVKEIIISKLKAFATDIEGMLEESGFD
  soluble fraction (log2): -2.59

## HMSRAAQRLFMSQPPLSRHIRQLEDRLGVTLFVRHTRGLTLTEDGQRVLEMVRPLLDLQDKTYAALSQLT
  soluble fraction (log2): ≥ 0.43

## HMDFRQALNTSADSDANKVALLESIVKGKYVSSTVNLLRRVITLRRGRSIDATLAAYSHYVSIR
  soluble fraction (log2): 0.385

## HMARGTRTRAKLLAAAEVVFARYGYTEASIERITEEAGVGQGTFYLYFASKLEIFEELVDDLNR
  soluble fraction (log2): -1.07

## HMAVKPIDRLRSLMAESNVTDAELQKVVADKGHYAADAPIDSYSEKFISGWLIKYWSQILNLINADRTVL
  soluble fraction (log2): -0.0558

## HMTYYEGYYRKNQKGFGFVIVDGRDEDIYIDAKNMNGALNNDLVVVEELKGQNGKKTEGRVVKVLKKE
  soluble fraction (log2): -0.284

## HMQSYSTIIGVIELRLSGIGYRTTKARYGIGNSTVTLIMNRFKETGFTLDDLKTMEPTKVEALFYPP
  soluble fraction (log2): -0.229

## HMEQVSDPALLERYAKEVVAASPKAVADYQAGNAKAFQALVGQMMKRTKGKGDPALIREILQKL
  soluble fraction (log2): 0.143

## HMAESLHVTAAALFEGRAMLGIDGSRRLLRVGETSPEGVKLVSATAREAVIEIDGRRQTLAPGRDT
  soluble fraction (log2): 0.0589

## HMTPDDSYIAGYAAGILKHQFLIDAPELIVRNGTITIPADKVSAGDRAKVVQILSGIPGVTRVEVG
  soluble fraction (log2): 0.368

## HMVKSSVTEVISMINALPVTVKPEDKADIISARMAYDTLTEDEKALVTNYEILTAAETRFNELIATT
  soluble fraction (log2): -0.101

## HMDTVEFPVQVNGKVRGKITVAADAGKDAIETAALADEKVLAFLDGATPKKVIVVPGKLVNLVVQPG
  soluble fraction (log2): ≥ 0.43

## HMEETIVFGQQKAINALSSDAGLSSNELDSYLKKRYKRPLYQLSKSEGAELIQGFQDGSLSKASIMDYVS
  soluble fraction (log2): 0.346

## HMLIDSEILKKTNKITIFLIYAFFSEYLINKEKKKILIGEYIKLSKDFLTIEEVKYFNHLLDDISK
  soluble fraction (log2): -0.304

## HMGTSMDPPVIIVSDGKLIQKGLEVSGLKKQWLYDLIDRKHMKISDIFLLTADKTGKYNLIKRS
  soluble fraction (log2): -0.134

## HMDFDQELFDKIVEATMDEARAAMDTDDKNVREERWNKLIEHWHELFLEDYPEMDKYLEEITYKFQKNPAT
  soluble fraction (log2): -1.23

## HMPQKIVIQKGVVIKKRERSDAWQIYITVKGKKPIRKSANTDNVEKAKQMALTLFAEKNYKVENNLPIQ
  soluble fraction (log2): -0.0334

## HMGGEIGSGKNGYVAFYKGKKVDVKADSMYGAQKTAAKYFNAKKEYDVNVVLAEVDGKQYVQS
  soluble fraction (log2): 0.151

## HMGITMFGQNLKKLRTSKNLSQSKLSKILGISSSTIGMYEQGRRFPDQTILTKIADFFDVSTDYLLGR
  soluble fraction (log2): 0.339
